In article doi:10.1101/774158:

Legend:
WT-ZnF-KLF1 = WT-ZnF-KLF1 (mouse, UniProt P46099 275-358); assay: EMSA
CDA-ZnF-KLF1 = CDA-ZnF-KLF1 (mouse, UniProt P46099 275-358, E321K); assay: EMSA
Chain of CDA-ZnF-KLF1 (P46099 275-358 E321K): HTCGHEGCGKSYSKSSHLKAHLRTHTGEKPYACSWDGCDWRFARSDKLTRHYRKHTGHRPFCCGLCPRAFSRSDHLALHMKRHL

Chain of WT-ZnF-KLF1 (P46099 275-358): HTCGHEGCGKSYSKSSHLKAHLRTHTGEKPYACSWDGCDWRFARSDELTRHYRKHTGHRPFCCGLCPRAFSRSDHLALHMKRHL

B1: 9xG (CDA-GGG) (dsDNA)
DNA 1: AGCTAAGGGGGGGGGCA
DNA 2: AGCTTGCCCCCCCCCTT
- Kd (WT-ZnF-KLF1): ~4.99 µM
- Kd (CDA-ZnF-KLF1): 0.696 ± 0.0711 µM
